Experimental findings from patent US20260217847A1 (NANJING REGENECORE BIOTECH, published 2026) are described below.

Holding throughout (test): peptide ELISA on streptavidin plate, 2 µg/mL 2H7-hFc, anti-hFc HRP
(An ELISA detects its analyte on a solid surface through an enzyme-linked reagent.)

Assay [1] has as its target T1, TfR1 peptide D2-loop3-K (human).
T1 construct: Synthetic peptide, captured on a streptavidin-coated plate; also called peptide No. 14
T1 peptide: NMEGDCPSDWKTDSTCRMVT
How it is done:
(§1) The peptide-antibody binding was identified using a standard enzyme-linked immunosorbent assay (ELISA). The steps were as follows: [0244] (1) The wells of an ELISA plate were coated with 100 μL of 2 μg/mL SA (streptavidin) protein at 4° C. overnight. […] (2) The wells of the ELISA plate were washed with PBST buffer. After adding 200 μL of 2% BSA, the plate was blocked at 37° C. for 1 h. […] (3) The peptide protein was diluted to 2 μg/mL, and a negative control and a positive control (AVI-tagged TfR1 protein) were included. Each experiment contained duplicate controls. […] (4) The wells of the ELISA plate were washed multiple times with PBST buffer. Then, 100 μL of the diluted peptide protein solution from step (3) was added into wells in duplicate, and along with the negative control wells, incubated at 37° C. for 1 h. [0248] (5) The wells of the ELISA plate were washed multiple times with PBST buffer. […] [0249] (6) The wells of the ELISA plate were washed multiple times with PBST buffer. Then, 100 μL of 2× anti-hFc HRP secondary antibody was added, and the plate was incubated at 37° C. for 1 h. [0250] (7) The wells of the ELISA plate were washed multiple times with PBST buffer. After adding 100 μL of TMB chromogenic solution, the reaction was carried out in the dark at room temperature for 30 min. [0251] (8) 100 μL of stop solution (1 mol/L HCl) was added to terminate the reaction. OD450 was measured using a microplate reader, and the readings were recorded.

Assay [2] has as its target T2, TfR1 peptide D3-helix1-helix2 (human).
T2 construct: Synthetic peptide, captured on a streptavidin-coated plate; also called peptide No. 8
T2 peptide: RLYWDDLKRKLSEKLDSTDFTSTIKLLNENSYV
How it is done:
as §1

Assay [3] concerns the target T3, TfR1 peptide D3-helix3-loop1 (human).
T3 construct: Synthetic peptide, captured on a streptavidin-coated plate; also called peptide No. 10
T3 peptide: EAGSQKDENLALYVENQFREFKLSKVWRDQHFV
How it is done:
as §1

The target of assay [4] is T4, TfR1 peptide D1-helix1-helix2 (human).
T4 construct: Synthetic peptide, captured on a streptavidin-coated plate; also called peptide No. 18
T4 peptide: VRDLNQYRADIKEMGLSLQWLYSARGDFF
How it is done:
as §1

Assay [5] addresses T5, TfR1 peptide D2-loop1 (human).
T5 construct: Synthetic peptide, captured on a streptavidin-coated plate; also called peptide No. 12
T5 peptide: GTKKDFEDLY
How it is done:
as §1

The target of assay [6] is T6, TfR1 peptide D3-loop1 (human).
T6 construct: Synthetic peptide, captured on a streptavidin-coated plate; also called peptide No. 11
T6 peptide: LSKVWRDQHFV
How it is done: as §1

Assay [7] deals with T7, TfR1 peptide D2-loop1-loop2 (human).
T7 construct: Synthetic peptide, captured on a streptavidin-coated plate; also called peptide No. 15
T7 peptide: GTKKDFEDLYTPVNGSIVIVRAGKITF
How it is done: as §1

In assay [8] the target is T8, TfR1 peptide D1-helix3-helix4 (human).
T8 construct: Synthetic peptide, captured on a streptavidin-coated plate; also called peptide No. 19
T8 peptide: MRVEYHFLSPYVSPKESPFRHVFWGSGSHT
How it is done:
as §1

The target of assay [9] is T9, TfR1 peptide D3-helix1 (human).
T9 construct: Synthetic peptide, captured on a streptavidin-coated plate; also called peptide No. 5
T9 peptide: RLYWDDLKRKLSEKLDSTD
How it is done:
as §1

Assay [10] concerns the target T10, TfR1 peptide D2-loop1-K (human).
T10 construct: Synthetic peptide, captured on a streptavidin-coated plate; also called peptide No. 13
T10 peptide: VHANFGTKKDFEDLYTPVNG
How it is done: as §1

Assay [11] has as its target T11, TfR1 peptide D1-helix4 (human).
T11 construct: Synthetic peptide, captured on a streptavidin-coated plate; also called peptide No. 3
T11 peptide: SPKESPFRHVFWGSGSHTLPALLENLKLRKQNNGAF
How it is done: as §1

The target in assay [12] is T12, TfR1 peptide D1-helix1 (human).
T12 construct: Synthetic peptide, captured on a streptavidin-coated plate; also called peptide No. 1
T12 peptide: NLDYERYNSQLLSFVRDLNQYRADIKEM
How it is done:
as §1

The target of assay [13] is T13, TfR1 peptide D3-helix3 (human).
T13 construct: Synthetic peptide, captured on a streptavidin-coated plate; also called peptide No. 7
T13 peptide: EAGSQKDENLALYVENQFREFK
How it is done: as §1

Assay [14] has as its target T14, TfR1 peptide D2-loop2-K (human).
T14 construct: Synthetic peptide, captured on a streptavidin-coated plate; also called peptide No. 21
T14 peptide: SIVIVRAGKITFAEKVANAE
How it is done:
as §1

B1: anti-humanized TfR1 single-domain antibody-Fc fusion antibody 2H7-hFC1 (Fc fusion)
chain (part 1 of 2): ESGGGLVQPGESLRLSCVASGSIWSIYTMGWYRQAPGKQRDFVASITGDSTRTLESVKDRFIISRDNTKNTLYLQMNSLKPEDTAVYYCQAITSLGEYWGQGTQVTVSS
notes: Expressed in 293F cells, Protein A purified; labelled with pHrodo iFL Green in the internalization assays; also called VHH-hFc; not shown: human IgG1 Fc: hinge, CH2 and CH3 regions, from vector RJK-V4-hFC1; limits and junction (multiple cloning site) not stat
Turning to B1, the OD450 in [1] came to 0.217; in [2] it was 0.274; in [3], 0.229; in assay [4], 0.977; in assay [5], 0.176; in assay [6], 0.17. Further, the OD450 in [7] was found to be 1.12; in [8] it was 0.508; in [9], 0.147; in assay [10], 0.195; in [11] it was 1.49; in assay [12], 0.21. In addition, the OD450 in assay [13] was 0.155; in assay [14], 0.16. Further, the P/N was 3.5 in [4], 6.4 in assay [7], 4.7 in assay [8] and 9.5 in assay [11].
